Earlier results as cited in paper PMC8592953.
Read-outs that look alike come from different tables or passages of the source.

Key:
[1] = biological target: RAGE (soluble) soluble (Homo sapiens) (UniProt Q15109)
[2] = biological target: RAGE (soluble) soluble (Homo sapiens) (UniProt Q15109); remark: listed apart in the source

UniProt Q15109, sequence (Q15109 23-342): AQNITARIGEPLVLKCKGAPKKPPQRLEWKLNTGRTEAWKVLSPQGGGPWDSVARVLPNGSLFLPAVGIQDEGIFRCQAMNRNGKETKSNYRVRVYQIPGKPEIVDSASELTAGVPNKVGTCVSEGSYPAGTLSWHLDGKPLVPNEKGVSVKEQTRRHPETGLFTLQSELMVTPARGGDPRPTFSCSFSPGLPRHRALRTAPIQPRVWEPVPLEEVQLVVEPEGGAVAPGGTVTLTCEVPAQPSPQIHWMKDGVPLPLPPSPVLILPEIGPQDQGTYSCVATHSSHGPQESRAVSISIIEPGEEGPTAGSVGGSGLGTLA

Kd [1] [nM]	Kd [2] [nM]	Substance
1000	–	AGE-modified bovine serum albumin (BSA-AGE) (from UniProt P02769)
–	100	glyoxylic acid-glycated bovine serum albumin (from UniProt P02769)
